Target: biotinylated recombinant SARS-CoV-2 RBD (SARS-CoV-2) (UniProt P0DTC2)
Test: BLI

soluble N. vison ACE2 (domain or fragment)
Kd: 1500 nM
